Data from the DeepSol protein solubility set.

Test: soluble on expression in E. coli; label from the status in PepcDB or PDB records

Sequence | soluble on expression in E. coli
MLVFIDDGSTNIKLQWQESDGTIKQHISPNSFKREWAVSFGDKKVFNYTLNGEQYSFDPISPDAVVTTNIAWQYSDVNVVAVHHALLTSGLPVSEVDIVCTLPLTEYYDRNNQPNTENIERKKANFRKKITLNGGDTFTIKDVKVMPESIPAGYEVLQELDELDSLLIIDLGGTTLDISQVMGKLSGISKIYGDSSLGVSLVTSAVKDALSLARTKGSSYLADDIIIHRKDNNYLKQRINDENKISIVTEAMNEALRKLEQRVLNTLNEFSGYTHVMVIGGGAELICDAVKKHTQIRDERFFKTNNSQYDLVNGMYLIGN | soluble
MGSDKIHHHHHHMANNNGKDKSLESWIWDAACSIRGAKDAPKYKDYILPLIFTKRLCDVFDDELNRIAAEVGSRKKAFQLAKADHKLVRFYLPLVPDDPEQPVWSVIRKLSDWIGEGVTSHMRAIARENPLLQGIIDRVDFNATTHGQRDLDDDRLSNLIEAISTKRLGLEDVEADIIGKSYEYLIRKFAEGGGQSAGEFYTPPEVGTIMSRVLQPEPGMEIYDPTCGSGGLLVKCEIAMEETAKGKKRTVAPLKLFGQEFTPETWAMANMNMIIHDMEGQIEIGDTFKNPKFRSKGKLRTFDRVVANPMWNQDWFTEADYDNDELDRFPAGAGFPGKSSADWGWVQHIHASMNATGRAAVVLDTGAASRGSGNAGTNKEKTVRQWFVDHDLIESVLYLPENLFYNTTAPGIVLFLNKAKAHERKGKVFLVNASQVFEKGDPKNFIPEAGIQRIADTLIGWVEAEKLSRIVDHAELKKNDYNISPSRYIHTSDAETYRPIAEIVEELEAIEAEAKETDQALDRILKQLGIGA | not soluble
GAMPPIFLPPPNYLFVRDVWKSNLYSEFAVIRQLVSQYNHVSISTEFVGTLARPIGTFRSKVDYHYQTMRANVDFLNPIQLGLSLSDANGNKPDNGPSTWQFNFEFDPKKEIMSTESLELLRKSGINFEKHENLGIDVFEFSQLLMDSGLMMDDSVTWITYHAAYDLGFLINILMNDSMPNNKEDFEWWVHQYMPNFYDLNLVYKIIQEFKNPQLQQSSQQQQQQQYSLTTLADELGLPRFSIFTTTGGQSLLMLLSFCQLSKLSMHKFPNGTDFAKYQGVIYGIDGDQ | soluble
MSLHSLQRKVLRTICPDQKGLIARITNICYKHELNIVQNNEFVDHRTGRFFMRTELEGIFNDSTLLADLDSALPEGSVRELNPAGRRRIVILVTKEAHCLGDLLMKANYGGLDVEIAAVIGNHDTLRSLVERFDIPFELVSHEGLSRNEHDQKMADAIDAYQPDYVVLAKYMRVLTPEFVARFPNKIINIHHSFLPAFIGARPYHQAYERGVKIIGATAHYVNDNLDEGPIIMQDVIHVDHTYTAEDMMRAGRDVEKNVLSRALYKVLAQRVFVYGNRTIILEGHHHHHH | soluble
MRGWHHHHHHGIRMRARYPSVVDVYSVEQFRNIMSEDILTVAWFTAVWCGPCKTIERPMEKIAYEFPTVKFAKVDADNNSEIVSKCRVLQLPTFIIARSGKMLGHVIGANPGMLRQKLRDIIKDN | soluble
MVYSWQHCPNTRSNTEAMMAHDWDEYAANWEKDPATHAFAQSVFEHLTKILSLQGKHILDFGCGTGLLSQRMSPFARDIVALDSSEAMIEELDRKELRNVEPVVDCLTRGLVAQHPAFRKQFDLVVASSVCAFLPNLQDVTDIIFTLVDEGGYFVHFDWLADGKSEIGLSTTEIESVLRNAGFSAVETRVAFDVTTAQGTQPVVVGIARK | not soluble
MRDVQKQYNKQEGFVQGYSIIDSYSEDEIPKDGKRSTIQLVHEMGLEKARRIYGENYQCLVATQCDGKSGLYHNHLISNAVGNDGKSQRGDMTKWTKLAEISDQVMIDYGYTPLDKNNWRLNKTRKAEARSKGEYVSPNERKARKNGMTLAKDEVREQIQKVIDDETVKSFEDFKQMLNEEYQIGVEDAGTKDGENIKYSFSYTNKKGETSEKTIKAKTLSKEDYTLSGVKSKIEDKLLETGNFEINENDLTQQQQQMLSNLIVPEDDEDELELEFDDESLAFLDQINEEVKEYGREKHSSKATRNNQRVEKQHRDHQRHVENNERSTTRTKSSSKRAKDKDAGFELG | not soluble
MGSVVPHYSWFSGITQFQKGKEFQFAEGQGVPIANGIPASEQKGYWYRHNRRSFKTPDGQQKQLLPRWYFYYLGTGPHAGASYGDSIEGVFWVANSQADTNTRSDIVERDPSSHEAIPTRFAPGTVLPQGFYVEGSGRS | soluble
MGSDKIHHHHHHLTLESKYHKKPEEIEEEQLWIEKAKQNPQHFAVLYEKYYKTIFLYLFRKVNDMDVAGDLCSDVFSKALSAIQSYEYKGVPYSAWLYRIAANEANMYFRKHNKREMICIDDTSIHLLNEDLQESNEENIYLTFLPLCLERLKPDEVILVQWRFFENKAFKEVGEIMNMTENNAKVKTYRILEKIRKWMLEMKGKSNE | not soluble
MGSDKIHHHHHHCPVNWVEFGGSCYWFSRDGLTWAEADQYCQLENAHLLVINSREEQDFVVKHRSQFHIWIGLTDRDGSWKWVDGTDYRSNYRNWAFTQPDNWQGHEQGGGEDCAEILSDGHWNDNFCQQVNRWVCEKRR | not soluble
EAPFTLKVNTLPLNFDKAEHHRKFQIHINVSYIGERPNSNMVIVDVKMVSGFIPVKPSVKKLQDQSNIQRTEVNTNHVLIYIEKLTNQTMGFSFAVEQDIPVKNLKPAPVKVYDYYETDEFAIEEYSAPFSSDS | soluble
MGHHHHHHSHMSGRSVPHAHPATAEYEFANPSRLGEQRFGEGLLPEEILTPTLYHGYYVRPRAAPAGEGSRAGASELRLSEGKFQAFLDVSHFTPDEVTVRTVDNLLEVSARHPQRLDRHGFVSREFCRTYVLPADVDPWRVRAALSHDGILNLEAPRGGRHLDTEVNEVYISLLPAPPDPEEEEEAAIVEP | not soluble
MISNFKSISLTYRKAPLEIRERVALNEAECKSLMLRIKDFTDTAELLILSTCNRTEIYYTSNEDYSNDIIKLLGVEKNITGLIQQKEYFEIYNEQADAVLHLFEVGIGLDSQVVGDMQIVNQVKYAYQWSADLNLAGPFLHRLMHTIFFTNKRVVQETAFRDGAASVSYATVELSEELLSATPNANILIVGLGEIGADVCRNFKANTSFKNITLTNRSPLKSEALAAECGIEHVPFETLWEAVAKADLVISSVAKEEPLFTKEEIQKLSILSHKYFIDLSVPRSVDARAEELPGIIVYDIDHIQNRSNEALENRLNAIPHVRKIILDSIVEFNEWSKEMEVSPTINKLKNALEQIRKEELSRFVKQLSDEEAKKVDEITKSIMQKIIKLPVLQLKAACKRGEAETLIDVLNDLFNLDKQPEQIRD | not soluble
AFTGKFEMESEKNYDEFMKLLGISSDVIEKARNFKIVTEVQQDGQDFTWSQHYSGGHTMTNKFTVGKESNIQTMGGKTFKATVQMEGGKLVVNFPNYHQTSEIVGDKLVEVSTIGGVTYERVSKRLA | soluble
MGSDKIHHHHHHMKTQSQDRWFIWQLSEELEAKIRYREYGPPDSPFTPLLFIHGYGGMIEHWNDNIPSFDDRYRIYAMDLIGFGQSGKPNVRYSLALFAAQIKAFMHLKKLEKVTLVGHSMGAASSIIYAHHNPDSVRALVLANPSGLYGDSMDGVAKIFFGLVGSPLIGEMLFAAFANPVGVSQSLTPTYYNQKKVDLNLINQFSRPLQDRGAIFSYLSPSKRPHDFMLDGLKPCNYKGDAWLLWGAEDTALPPHKIIPEFQELLPQAGAYIIPKAGHCIHHDAHETFNNRLAQLLQRLE | not soluble
MRTLITGASGQLGIELSRLLSERHEVIKVYNSSEIQGGYKLDLTDFPRLEDFIIKKRPDVIINAAAMTDVDKCEIEKEKAYKINAEAVRHIVRAGKVIDSYIVHISTDYVFDGEKGNYKEEDIPNPINYYGLSKLLGETFALQDDSLIIRTSGIFRNKGFPIYVYKTLKEGKTVFAFKGYYSPISARKLASAILELLELRKTGIIHVAGERISRFELALKIKEKFNLPGEVKEVDEVRGWIAKRPYDSSLDSSRARKILSTDFYTLDLDGMVV | soluble
GMINTKEDFLLLIKQIEQKSGYKKPKAFGIARLDRGQLNKNKILQASFALINYEQNFGSAAIMLEAFMQRGVEIDFNASEFVQTLKLEDIDFALSCFKPFLEEDGHQNIDLLKIIKDKFKDDEFSFVCLFEDKEPLSVESIYLKLYLLSTKKVPLRSINLNGAFGLLSNVAWSDDKPIELEYLRANEMRLKMSNQYPKIDFVDKFPRFLAHIIPEDNTRILESSKVRMGASLAAGTTIMPGASYVNFNAGTTGACMVEGRISSSAIVGEGSDVGGGASILGVLSGTSGNAISVGKACLLGANSVTGIPLGDNCIVDAGIAVLEGTKFLLKDAEELAKLNPYFNFDKEIYKGLELKGLNGLHFRQDSISGAMIVALNKKAVKLNEALH | soluble
MAHHHHHHMNLKTKLQKRRDEVNTCLCIGLDPDEADIKSFMQSEKQNGYQSIKKNLSNHGSSSQGGLFTPQVGGTMLLAENPPKEVQEKDEFFYFFNHFCFYIINETKQYALSYKMNFAFYLPYGSLGVDVLKNVFDYLHYLDVPTILDIKMNDIGNTVKHYSKFIFHYLRSDSCTANIYMGTHMLRDICLDEECKRHYSTFVLIKTTNPDSHIFQNRLSLDGKEAYVVIADEAQKMAKQLHLEENGEFVGFVVGANCYDEMKKIRELFPDCYILAPGVGAQKGDLRKTLCNGYSKNYERLLINVGRAITKSGNPQQAAREYYHQIKEILAELRE | soluble
MGSDKIHHHHHHMIYFLCSFYGEAEGIISYYKLRKEAVHSSFQIFSSEEIKLIISGTGKINAACAVGYIGSLKSKLSKDLFVNVGICGSRSRTVGECVFINKIKDVDTNKEFYPDILLKHDFEEGNLQTFSIPVTTGQVDDVCDMEGSAFFQSASKFFQKHEIALIKIVSDNANNVNVSGELVRNLIKKSMEKINSYIENYKRIFHEKNFLSDVCTGNIEKIVSRLRLTESQSIQLKKAAVAYKIRNGKEFDFEGFLSLEVKIKNDGRKYFSNLIGSMWK | not soluble
MIRSMTGFGRGRAQADGREFLVEIKTVNHRYCDIYIKLPRQISFLEDKVREVIGKSISRGKVDVFINYEDFSEDSKNILIDEGLAKTYIKSVEYLRDKYGLKDDISVSLIAKFPDILKVEKPEEDEEKIWNLLYEALSHALDSLISMRETEGEGLKNDLLERTDAIEKVVQEISIRAPEVVKEYKCKLENRIKEILEQQVIDENRLAMEVAIFADRCNIDEELVRLESHINQLRQTLNSDSDTPVGRKLDFLIQEMNREINTIGSKANDLSITQNVVEIKSELEKIREQIQNIE | soluble
MGSDKIHHHHHHMKNNLNNILEDSLNYKIGETLDELKSIKKLDEIFSKRKDQLYREKDEGKKVYGRFCVFVPTEIICAADAIPVGLCGGKESTIPSAEEDLPRNICPLIKSSYGFKKDKACPYFEASDVIVGETTCDGKKKMFEHMAELSEMYVMHLPHFKDERSYELWLKEVYDFKDYVEKFTGNKITEEKLKEAIDEENEERMLSHKLYELRSQIPTPITGKDALKIFQRSFLLDIKDRLAILKEVISELEERVKNGEGYTGKRILVAGCPMVAGNTKIVDIIEEVGGLVVGEETCTGTRKFDNLVNGYTIDDLAERYFKINCASAFKNDSRIERIKELVKEQNADGVVYYTLQYCHTFNVEGALIEKELKNLGIPIIRIETDYSESDKEQIKTRLEAFVEMI | not soluble
